Assay results: patent publication US20210292393A1 (published 2021)

Experiments:
[1] = biological target: spike protein of SARS-CoV-2 clinical isolate USA/WA/1/2020 (live virus) (SARS-CoV-2, UniProt P0DTC2 14-1273); test: cell-based or functional assay
[2] = biological target: SARS-CoV-2 full-length spike protein on pseudotyped lentivirus (SARS-CoV-2, UniProt P0DTC2 14-1273); test: cell-based or functional assay
[3] = biological target: SARS-CoV-2 spike protein (wild type), spike protein trimer (SARS-CoV-2, UniProt P0DTC2 14-1208)
[4] = biological target: SARS-CoV-2 full length spike protein (wild type), expressed on the surface of transiently transfected CHO … (SARS-CoV-2, UniProt P0DTC2 14-1273)

B1: anti-SARS-CoV-2 antibody 1015 (antibody, V domains shown)
VH: EVQLVESGGGLVQPGGSLRLSCAASGFTFSSYWMHWVRQAPGKGLVWVSHINSDGSSTSYADSVKGRFTISRDNAKNTLYLQMNSLRAEDTAVYYCARGLRYFDLDVWGQGTTVTVSS
VL: QSVLTQPPSVSEAPRQRVTISCSGSSSNIGNNAVNWYQQLPGKAPKLLIFYDDLLPSGVSDRFSGSKSGTSASLAISGLQSEDEADYYCAAWDDSLNGGVFGGGTKLTVL
In the case of B1, the “Live Virus Neutralization IC50” value [1] is reported as 0.032 µg/mL, the “Pseudo-neutralization IC50” value [2] is reported as 0.011 µg/mL and the Kd [3] is reported as 0.096 nM.

B2: antibody 476 (antibody, V domains shown)
VH: QVQLVQSGSELKKPGASVKVSCKASGYTFTSYAMNWVRQAPGQGLEWMGWINTNTGNPTYAQGFTGRFVFSLDTSVSTAYLQISSLKAEDTGVYYCARDHELPNSSSWFGHFEYWGQGTLVTVSS
VL: SYELTQPPSVSVSPGQTARITCSGDALPKQYAYWYQQKAGQAPVLVIYKDSERRSGIPERFSGSSSGTTVTLTISGVQAEDEADYYCQSADSSGTSVVFGGGTKLTVL
B2 was tested, and the “median fluorescence intensity, fold over isotype control” value (“median fluorescence intensity, fold” for short) [4] was 18.2 fold over isotype.

B3: anti-SARS-CoV-2 antibody 1091 (antibody, V domains shown)
VH: EVQLVESGGGLVKPGGSLRLSCAASGFPFITYSMNWVRQAPGKGLEWVSSISRNSDYIYYADSVRGRVTISRDNAENSLYLQMHSLRAEDTAVYYCARDVVRSGNYYIPRHGMDVWGRGTTVTVSS
VL: QSVLTQPPSASGTPGQRVTISCSGTSSNIGSNTVNWYQQLPETAPKLLIYGTDQRPSGVPDRFSGSKSGTSASLAISRLQSEDEADYYCATRDDSLSGPVFGGGTQLTVL
With B3 the “Live Virus Neutralization IC50” value [1] was 0.074 µg/mL, the “Pseudo-neutralization IC50” value [2] was 0.016 µg/mL and the Kd [3] was 0.054 nM.

B4: anti-SARS-CoV-2 antibody 1075 (antibody, V domains shown)
VH: QVQLVQSGAEVKKPGASVKVSCKVSGYTLIELSMHWVRQAPGKGLEWMGGFDPEDGETIYAQKFQGRVTMTEDTSTDTAYMELSSLRSEDTAVYYCATEWAYYGSGSYLGYWGQGTLVTVSS
VL: EIVMTQSPATLSVSPGERATLSCRASQSVSSNLAWFQQKPGQAPRLLIYGASTRVTVIPARFSGSGSGTEFTLTISSLQSEDFAVYYCQQYNNWPRTFGQGTKVEIK
In the case of B4, the “Live Virus Neutralization IC50” value [1] is reported as 0.011 µg/mL, the “Pseudo-neutralization IC50” value [2] is reported as 0.039 µg/mL and the Kd [3] is reported as 0.093 nM.

B5: anti-SARS-CoV-2 antibody 1193 (antibody, V domains shown)
VH: EVQLVESGGGLVQPGGSLRLSCAASGFTFSSYYMNWVRQAPGKGLEWVSYISSGSSIIYYADSVKGRFTISRDNAKNSLYLQMNSLRDEDTAVYYCARDSPLRYFDWQLGGGFDYWGQGTLVTVSS
VL: QSALTQPASVSGSPGQSITISCTGTSSDVGGYNYVSWYQQHPGKAPKLMIYDVSNRPSGVSNRFSGSKSGNTASLTISGLQAEDEADYYCSSYTSSSLWVFGGGTKLTVL
In the case of B5, the “Live Virus Neutralization IC50” value [1] is reported as 0.31 µg/mL, the “Pseudo-neutralization IC50” value [2] is reported as 0.69 µg/mL and the Kd [3] is reported as 0.178 nM.

B6: antibody 470 (antibody, V domains shown)
VH: not shown
VL: QSALTQPASVSGSPGQSITISCTGTSSDVGSYNLVSWYQQHPGKAPKLMIYEVSKRPSGVSNRFSGSKSGNTASLTISGLQAEDEADYYCCSYAGSSTLVFGGGTKLTVL
B6 was tested, and the “median fluorescence intensity, fold” value [4] was 20.7 fold over isotype.

B7: antibody 454 (antibody, V domains shown)
VH: QVQLVQSGAEVKKPGASLKVSCKASGYIFTGYYMHWVRQAPGQGLEWMGWISPNSGGTKYAQKFQGRVTMTRDTSISTAYMELSRLRSDDSAVYYCAREPYYDILTGYYTPRRYLDYWGQGTLVTVSS
VL: QSALTQPASVSGSPGQSITISCTGTSSDVGDYNYVSWYQQHPGKVPKLMIYDVSHRPSGVTNRFSGSKSGNTASLTISGLRAEDEADYYCSSYTSSSTYVFGTGTKVTVL
B7 was tested, and the “median fluorescence intensity, fold” value [4] was 29.6 fold over isotype.

B8: anti-SARS-CoV-2 antibody 1037 (antibody, V domains shown)
VH: QITLKESGPTLVKPTQTLTLTCTFSGFSLSTSGVGVGWIRQPPGKALEWLALIYWDDDKRYSPSLKSRLTITKDTSKNQVVLTMTNMDPVDTATYYCAHHTITRINDYWGQGTLVTVSS
VL: QSALTQPASVSGSPGQSITISCTATSSDVGAYNYVSWYQQHPGKAPKLMIYDVSKRPSGVSNRFSGSKSGNTASLTISGLQAEDEADYYCSSYTSSSTVFGGGTKLTVL
B8 was tested, and the “Live Virus Neutralization IC50” value [1] was 0.009 µg/mL, the “Pseudo-neutralization IC50” value [2] was 0.025 µg/mL and the Kd [3] was 0.126 nM.

B9: anti-SARS-CoV-2 antibody 1081 (antibody, V domains shown)
VH: EVQLVQSGAEVKKPGESLKISCKRSGYSFTTYWIGWVRQMPGKGLEWMGSIYPGDSDTRYSPSFQGQVTISADKSISTAYLQWSSLKASDTAMYYCASQEVPGYYYYMDVWGKGTTVTVSS
VL: DIQMTQSPSSLSASVGDRVTITCRASQSISSYLHWYQQKPGKAPKLLIYAASSLQSGVPSRFSGSGSGTDFTLTISSLQPEDFATYYCQQTYSTHTWTFGQGTKVEIK
For B9, the “Live Virus Neutralization IC50” value [1] was 4.6 µg/mL, the “Pseudo-neutralization IC50” value [2] was 0.012 µg/mL and the Kd [3] was 0.093 nM.

B10: antibody 439 (antibody, V domains shown)
VH: QVQLVESGGGVVQPGRSLRLSCAASGFTFSSYAMHWVRQAPGKGLEWVAVISYDGSNKYYADSVKGRFTISRDNSKNTLYLQMNSLRAEDTAVYYCARPPRGGSYYPFDPWGQGTLVTVSS
VL: not shown
For B10, the “median fluorescence intensity, fold” value [4] was 8.2 fold over isotype.

B11: antibody 446 (antibody, V domains shown)
VH: QVQLVESGGGVVQPGRSLRLSCAASGFTFSSYAMHWVRQAPGKGLEWVAVISYDGSNKYYADSVKGRFTISRDNSKNTLYLQMNSLRAEDTAVYYCARPNSGSYFGYFQHWGQGTLVTVSS
VL: QSVLTQPPSVSGAPGQRVTISCTGSSSNIGAGYDVHWYQQLPGTAPKLLIYGNSNRPSGVPDRFSGSKSGTSASLAITGLQAEDEADYYCQSYDSSLSGFYVFGTGTKVTVL
With B11 the “median fluorescence intensity, fold” value [4] was 7.99 fold over isotype.

B12: antibody 475 (antibody, V domains shown)
VH: QVQLVESGGGVVQPGRSLRLSCAASGFTFSSYAMHWVRQAPGKGLEWVTFISHEGSNKYYADSVKGRFTISRDNSKNTLYLQMNSLRAEDTAVYYCARTFEYSSSSATGDFDYWGQGTLVTVSS
VL: QSVLTQPPSVSGAPGQRVTISCTGSSSNIGAGYDVHWYQQLPGTAPKLLIYGNSNRPSGVPDRFSGSKSGTSASLAITGLQAEDEADYYCQSYDSSLSGVVFGGGTKLTVL
B12 was tested, and the “median fluorescence intensity, fold” value [4] was 32.2 fold over isotype.

B13: anti-SARS-CoV-2 antibody 1012 (antibody, V domains shown)
VH: EVQVVESGGGLVQPGGSRRLSCTASGFTLRNYWMSWVRQAPGKGLEWVANIKQDGSEKYYVDSVKGRFTISRDNAKNSLYLQMDSLRAEDTAVYYCARGGRYCPGGSCPRWGRGTLVTVSS
VL: DIQMTQSPSSLSASVGDRVTITCQASQDISNFLNWYQLKPGEAPTLLIFDASKLETGVPSRFSGTGFGTDFTFTISSLQPEDTATYYCQQYDDLTSITLGQGTRLEIK
B13 was tested, and the “Live Virus Neutralization IC50” value [1] was 0.028 µg/mL, the “Pseudo-neutralization IC50” value [2] was 0.006 µg/mL and the Kd [3] was 0.139 nM.

B14: anti-SARS-CoV-2 antibody 1027 (antibody, V domains shown)
VH: EVQLVESGGGLVQPGGSLRLSCAASGFTVSSNYMSWVRQAPGKGLEWVSIIYSGGSTFYADSVKGRFTISRDSSKNTLYLQMSSLRAEDTAVYYCARDLDYYGMDVWGQGTTVTVSS
VL: DIQLTQSPSFLSAPVGDRVTITCRASQGISSYLAWYQQKPGKAPKLLIYGASTLQSGVPSRFSGSGSGTEFTLTISSLQPEDFATYYCQQLNSYQRFTFGPGTKVEIK
B14 was tested, and the “Live Virus Neutralization IC50” value [1] was 0.005 µg/mL, the “Pseudo-neutralization IC50” value [2] was 0.01 µg/mL and the Kd [3] was 0.205 nM.

B15: antibody 456 (antibody, V domains shown)
VH: QVQLQQWGAGLLKPSETLSLTCAVYGGSFSGYYWSWIRQPPGKGLEWIGEINHSGSTNYNPSLKSRVTISVDTSKNQFSLKLSSVTAADTAVYYCARDGSGSYYLSYYFDYWGQGTLVTVSS
VL: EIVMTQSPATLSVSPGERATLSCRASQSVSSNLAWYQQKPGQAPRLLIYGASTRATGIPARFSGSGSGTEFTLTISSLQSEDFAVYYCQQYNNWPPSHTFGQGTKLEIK
For B15, the “median fluorescence intensity, fold” value [4] was 9.25 fold over isotype.
